Assay results reported in US9879306B2, “Luciferase biosensors for cAMP” (PROMEGA CORPORATION, priority 2008, dated 2018).

What was measured:
HEK293 cells = test: Luminescence and fold response of biosensor clones in HEK293 cells after isoproterenol or FSK; format: cell-based; conditions: for Isoproterenol-5 minutes Induced / Isoproterenol-5 minutes Resp: 5 minutes after isoproterenol; for Forskolin (FSK) Induced / Forskolin (FSK) Resp: 15 minutes after FSK; for Isoproterenol-15 minutes Induced / Isoproterenol-15 minutes Resp: 15 minutes after isoproterenol; for Isoproterenol-5 minutes Resp / Forskolin (FSK) Resp / Isoproterenol-15 minutes Resp: RLU induced / RLU uninduced; for Isoproterenol-5 minutes Uninduced / Forskolin (FSK) Uninduced / Isoproterenol-15 minutes Uninduced: uninduced cells; for Forskolin (FSK) Uninduced / Isoproterenol-15 minutes Uninduced: 15 minutes
Experimental: B. HEK293 cells were transiently transfected with plasmid DNAs encoding various biosensor mutants as above. These biosensor mutants contained the E284A and V316I mutation in the RIIbetaB cAMP binding domain and the modified linker sequence 7A1 (GSNWDSGCSREG; SEQ ID NO: 129). The clones also contained the additional mutations outlined in Table 5. Cells were equilibrated for 2 hours at room temperature with 2 mM EF-Luc. Luminescence was measured 5 and 15 minutes after addition of the isoproterenol and 15 minutes after addition of FSK. Fold response (response; Resp.) was calculated by dividing relative light units (RLUs) from induced cells by the RLUs from uninduced cells. As a control, the biosensor GS358 and 7A1 were included.

dopamine D2 receptor = biological target: T1, dopamine D2 receptor (Homo sapiens, UniProt P14416); test: Forskolin, dopamine and haloperidol responses of biosensor clones in HEK293 cells stably expressing the dopamine D2 receptor; format: cell-based; conditions: for Dopamine Induced: 3 μM FSK + 0.3 μM dopamine; for Dopamine Induced / Forskolin (FSK) Induced / Forskolin (FSK) Uninduced: 10 minutes; for Forskolin (FSK) Induced: 3 μM FSK; for Halo Induced: 10 μM Haloperidol pre-treatment, then 3 μM FSK + 0.3 μM dopamine; for Dopamine Response: RLU agonist-treated / forskolin-treated; for Forskolin (FSK) Response: RLU forskolin-treated / untreated; for Halo Response: RLU haloperidol then FSK + dopamine / FSK + dopamine alone; for Forskolin (FSK) Uninduced: untreated (media alone)
T1 construct: expressed in transfected cells
T1 sequence (P14416 whole entry, species assumed): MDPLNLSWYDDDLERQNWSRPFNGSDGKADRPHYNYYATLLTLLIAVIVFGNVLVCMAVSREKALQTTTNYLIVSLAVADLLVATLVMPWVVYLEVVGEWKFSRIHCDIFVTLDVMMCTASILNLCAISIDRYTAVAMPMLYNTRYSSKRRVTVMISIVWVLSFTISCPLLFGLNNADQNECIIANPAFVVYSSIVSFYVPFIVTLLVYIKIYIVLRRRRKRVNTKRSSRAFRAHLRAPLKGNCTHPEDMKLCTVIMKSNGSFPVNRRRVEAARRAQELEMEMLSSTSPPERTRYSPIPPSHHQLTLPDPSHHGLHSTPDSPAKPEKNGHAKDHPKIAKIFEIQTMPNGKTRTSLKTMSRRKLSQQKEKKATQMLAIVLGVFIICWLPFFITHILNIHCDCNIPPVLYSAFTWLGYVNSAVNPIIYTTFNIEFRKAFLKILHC
From the text: To measure changes in the intracellular concentration of cAMP, HEK293 cells are transiently transfected with mutant cAMP biosensors followed by treatment with compounds known to increase or decrease the intracellular cAMP concentration through GPCR activation of Gs- or Gi-coupled receptors, respectively.
HEK293 cells stably expressing the dopamine D2 receptor were transiently transfected with the mutant cAMP biosensors from Example VIIB. Cells were also transfected with either 7A1 (Example III) or GS358 (parent biosensor) as controls. Cells were equilibrated for 2 hours at room temperature using 2 mM EF-luc. Antagonist assay wells were pre-treated for 10-15 minutes at room temperature with 10 μM Haloperidol (Halo). Next, the following reagents were added to their respective wells: media alone to “untreated” samples; 3 μM forskolin (FSK) to “forskolin-treated” samples; 3 μM FSK+0.3 μM dopamine to “agonist-treated” samples; and 3 μM FSK+0.3 μM dopamine to the aforementioned wells pre-treated with Halo. The cells were then incubated at room temperature for 10 minutes and luminescence was measured. Fold response for FSK was calculated by dividing the RLU from “forskolin-treated” cells by the RLU from the “untreated” cells. Fold response for dopamine treatment was calculated by dividing the RLU from the “agonist-treated” cells by the RLU from the “forskolin-treated” cells. Fold response for Haloperidol treatment was calculated by dividing the RLU from the cells treated with haloperidol then forskolin plus dopamine by the RLU of cells treated with forskolin plus dopamine alone.

| Molecule | Isoproterenol-5 minutes Induced (HEK293 cells) [RLU] | Forskolin (FSK) Induced (HEK293 cells) [RLU] | Isoproterenol-15 minutes Induced (HEK293 cells) [RLU] | Isoproterenol-5 minutes Resp (HEK293 cells) [fold] | Forskolin (FSK) Resp (HEK293 cells) [fold] | Isoproterenol-15 minutes Resp (HEK293 cells) [fold] | Isoproterenol-5 minutes Uninduced (HEK293 cells) [RLU] | Forskolin (FSK) Uninduced (HEK293 cells) [RLU] | Isoproterenol-15 minutes Uninduced (HEK293 cells) [RLU] | Dopamine Induced (dopamine D2 receptor) [RLU] | Forskolin (FSK) Induced (dopamine D2 receptor) [RLU] | Halo Induced (dopamine D2 receptor) [RLU] | Dopamine Response (dopamine D2 receptor) [fold] | Forskolin (FSK) Response (dopamine D2 receptor) [fold] | Halo Response (dopamine D2 receptor) [fold] | Forskolin (FSK) Uninduced (dopamine D2 receptor) [RLU] |
| --- | --- | --- | --- | --- | --- | --- | --- | --- | --- | --- | --- | --- | --- | --- | --- | --- |
| 15H6: 7A1 biosensor with F433Y, M493V in Luc2.0 and modified linker …; SEQ ID NO:107, 108 (protein, 7A1 biosensor with F433Y, M493V in Luc2.0 and modified linker …) MPGAVGKVVPFFEAKVVDLDTGKTLGVNQRGELCVRGPMIMSGYVNNPEATNALIDKDGWLHSGDIAYWDEDEHFYIVDRLKSLIKYKGYQVAPAELESILLQHPNIFDAGVAGLPDDDAGELPAAVVVLEHGKTVTEKEIVDYVASQVTTAKKLRGGVVFVDEVPKGLTGKLDARKIREILIKAKKGSNWDSGCSRECMYESFIESLPFLKSLEFSARLKVVDVIGTKVYNDGEQIIAQGDSADSFFIIESGEVKITMKRKGKSEVEENGAVEIARCSRGQYFGELALVTNKPRAASAHAIGTVKCLAMDVQAFERLLGPCMEIMKRNIATYEEQLVALFGTNMDIVAKNIKKGPAPFYPLEDGTAGEQLHKAMKRYALVPGTIAFTDAHIEVDITYAEYFEMSVRLAEAMKRYGLNTNHRIVVCSENSLQFFMPVLGALFIGVAVAPANDIYNERELLNSMGISQPTVVFVSKKGLQKILNVQKKLPIIQKIIIMDSKTDYQGFQSMYTFVTSHLPPGFNEYDFVPESFDRDKTIALIMNSSGSTGLPKGVALPHRTACVRFSHARDPIFGNQIIPDTAILSVVPFHHGFGMFTTLGYLICGFRVVLMYRFEEELFLRSLQDYKIQSALLVPTLFSFFAKSTLIDKYDLSNLHEIASGGAPLSKEVGEAVAKRFHLPGIRQGYGLTETTSAILITPEGV | 91567 | 29500 | 244700 | 85 | 57 | 61 | 1073 | 4040 | 4040 | 30 | 7177 | 65 | 0.56 | 25 | 2.2 | 283 |
| 16B3: 7A1 biosensor with S440N in Luc2.0; SEQ ID NO:72, 73 (protein) MPGAVGKVVPFFEAKVVDLDTGKTLGVNQRGELCVRGPMIMSGYVNNPEATNALIDKDGWLHSGDIAYWDEDEHFFIVDRLKNLIKYKGYQVAPAELESILLQHPNIFDAGVAGLPDDDAGELPAAVVVLEHGKTMTEKEIVDYVASQVTTAKKLRGGVVFVDEVPKGLTGKLDARKIREILIKAKKGSNWDSGCSREGMYESFIESLPFLKSLEFSARLKVVDVIGTKVYNDGEQIIAQGDSADSFFIIESGEVKITMKRKGKSEVEENGAVEIARCSRGQYFGELALVTNKPRAASAHAIGTVKCLAMDVQAFERLLGPCMEIMKRNIATYEEQLVALFGTNMDIVAKNIKKGPAPFYPLEDGTAGEQLHKAMKRYALVPGTIAFTDAHIEVDITYAEYFEMSVRLAEAMKRYGLNTNHRIVVCSENSLQFFMPVLGALFIGVAVAPANDIYNERELLNSMGISQPTVVFVSKKGLQKILNVQKKLPIIQKIIIMDSKTDYQGFQSMYTFVTSHLPPGFNEYDFVPESFDRDKTIALIMNSSGSTGLPKGVALPHRTACVRFSHARDPIFGNQIIPDTAILSVVPFHHGFGMFTTLGYLICGFRVVLMYRFEEELFLRSLQDYKIQSALLVPTLFSFFAKSTLIDKYDLSNLHEIASGGAPLSKEVGEAVAKRFHLPGIRQGYGLTETTSAILITPEGV | 72003 | 257605 | 248415 | 35 | 39 | 38 | 2063 | 6555 | 6555 | 3050 | 6400 | 6188 | 0.48 | 17 | 2.0 | 370 |
| 1B3: 7A1 biosensor with A338E in RIIβb; SEQ ID NO:33, 34 (protein) MPGAVGKVVPFFEAKVVDLDTGKTLGVNQRGELCVRGPMIMSGYVNNPEATNALIDKDGWLHSGDIAYWDEDEHFFIVDRLKSLIKYKGYQVAPAELESILLQHPNIFDAGVAGLPDDDAGELPAAVVVLEHGKTMTEKEIVDYVASQVTTAKKLRGGVVFVDEVPKGLTGKLDARKIREILIKAKKGSNWDSGCSREGMYESFIESLPFLKSLEFSARLKVVDVIGTKVYNDGEQIIAQGDSADSFFIIESGEVKITMKRKGKSEVEENGEVEIARCSRGQYFGELALVTNKPRAASAHAIGTVKCLAMDVQAFERLLGPCMEIMKRNIATYEEQLVALFGTNMDIVAKNIKKGPAPFYPLEDGTAGEQLHKAMKRYALVPGTIAFTDAHIEVDITYAEYFEMSVRLAEAMKRYGLNTNHRIVVCSENSLQFFMPVLGALFIGVAVAPANDIYNERELLNSMGISQPTVVFVSKKGLQKILNVQKKLPIIQKIIIMDSKTDYQGFQSMYTFVTSHLPPGFNEYDFVPESFDRDKTIALIMNSSGSTGLPKGVALPHRTACVRFSHARDPIFGNQIIPDTAILSVVPFHHGFGMFTTLGYLICGFRVVLMYRFEEELFLRSLQDYKIQSALLVPTLFSFFAKSTLIDKYDLSNLHEIASGGAPLSKEVGEAVAKRFHLPGIRQGYGLTETTSAILITPEGV | 59767 | 305500 | 344375 | 36 | 47 | 53 | 1673 | 6460 | 6460 | 1898 | 8410 | 5228 | 0.23 | 18 | 2.8 | 460 |
| 9G4: 7A1 biosensor with E382K in RIIβb; SEQ ID NO:37, 38 (protein) MPGAVGKVVPFFEAKVVDLDTGKTLGVNQRGELCVRGPMIMSGYVNNPEATNALIDKDGWLHSGDIAYWDEDEHFFIVDRLKSLIKYKGYQVAPAELESILLQHPNIFDAGVAGLPDDDAGELPAAVVVLEHGKTMTEKEIVDYVASQVTTAKKLRGGVVFVDEVPKGLTGKLDARKIREILIKAKKGSNWDSGCSREGMYESFIESLPFLKSLEFSARLKVVDVIGTKVYNDGEQIIAQGDSADSFFIIESGEVKITMKRKGKSEVEENGAVEIARCSRGQYFGELALVTNKPRAASAHAIGTVKCLAMDVQAFKRLLGPCMEIMKRNIATYEEQLVALFGTNMDIVAKNIKKGPAPFYPLEDGTAGEQLHKAMKRYALVPGTIAFTDAHIEVDITYAEYFEMSVRLAEAMKRYGLNTNHRIVVCSENSLQFFMPVLGALFIGVAVAPANDIYNERELLNSMGISQPTVVFVSKKGLQKILNVQKKLPIIQKIIIMDSKTDYQGFQSMYTFVTSHLPPGFNEYDFVPESFDRDKTIALIMNSSGSTGLPKGVALPHRTACVRFSHARDPIFGNQIIPDTAILSVVPFHHGFGMFTTLGYLICGFRVVLMYRFEEELFLRSLQDYKIQSALLVPTLFSFFAKSTLIDKYDLSNLHEIASGGAPLSKEVGEAVAKRFHLPGIRQGYGLTETTSAILITPEGV | 27930 | 263020 | 264500 | 50 | 46 | 46 | 553 | 5760 | 5760 | 1735 | 4133 | 4370 | 0.42 | 14 | 2.5 | 293 |
